Reference: the Human Domainome abundance scans (Beltran et al. 2025)
± gives the uncertainty stated by the source.

B1: POU domain, class 3, transcription factor 2, residues 262 to 338; numbered along this chain, P20265 (parent)
chain: EDTPTSDDLEQFAKQFKQRRIKLGFTQADVGLALGTLYGNVFSQTTICRFEALQLSFKNMCKLKPLLNKWLEEADSS

Variants of: B1
Assay: abundance fitness (aPCA) (normalised: wild type 0, dead -1); higher = more abundant; growth selection in yeast, the domain comes from the species named
Details: Homo sapiens
I47D gave an abundance fitness of -0.786 ± 0.11. For G35L, the abundance fitness was -0.453 ± 0.039. T45P gave an abundance fitness of -0.261 ± 0.045. For S56L, the abundance fitness was -0.633 ± 0.06. Variant K62D has an abundance fitness of -0.045 ± 0.053. Work on T45F yielded an abundance fitness of -0.104 ± 0.063. In the case of A52C, the abundance fitness is reported as -0.137 ± 0.065. With F25I the abundance fitness was -0.096 ± 0.064. For S6A, the abundance fitness was 0.108 ± 0.028. F12V showed an abundance fitness of -0.442 ± 0.12. Variant Q15A has an abundance fitness of -0.124 ± 0.034. Work on Q15P yielded an abundance fitness of -1.08 ± 0.23. Variant Q54M has an abundance fitness of -0.294 ± 0.074. With A74R the abundance fitness was -0.036 ± 0.029. Q15M showed an abundance fitness of 0.051 ± 0.042. In the case of F50R, the abundance fitness is reported as -0.886 ± 0.055. Variant R49K has an abundance fitness of 0.05 ± 0.045. Work on D7E yielded an abundance fitness of -0.087 ± 0.13. L34S gave an abundance fitness of -0.955 ± 0.093. Work on K58M yielded an abundance fitness of -0.12 ± 0.055. With T5I the abundance fitness was -0.006 ± 0.075. D8M showed an abundance fitness of -0.056 ± 0.049. In the case of D75N, the abundance fitness is reported as -0.032 ± 0.059. For E10I, the abundance fitness was -0.086 ± 0.069. Work on K62E yielded an abundance fitness of 0.006 ± 0.038. E10V showed an abundance fitness of 0.038 ± 0.028. For F16C, the abundance fitness was -0.765 ± 0.076. With P4Q the abundance fitness was 0.053 ± 0.052. With A52N the abundance fitness was 0.008 ± 0.062. With K58N the abundance fitness was 0.039 ± 0.18. With S6C the abundance fitness was 0.058 ± 0.042. With F57R the abundance fitness was 0.02 ± 0.025. With S43P the abundance fitness was -0.102 ± 0.041. Work on L34D yielded an abundance fitness of -0.76 ± 0.12. In the case of F57D, the abundance fitness is reported as -0.105 ± 0.066. Variant C48L has an abundance fitness of -0.152 ± 0.034. Variant S77P has an abundance fitness of 0.003 ± 0.041. In the case of C48I, the abundance fitness is reported as -0.134 ± 0.061. In the case of N59K, the abundance fitness is reported as -0.022 ± 0.039. With K58S the abundance fitness was -0.053 ± 0.051. For K69W, the abundance fitness was -0.288 ± 0.16. Work on G39V yielded an abundance fitness of -0.897 ± 0.069. Variant R49H has an abundance fitness of -0.314 ± 0.09. Work on F16M yielded an abundance fitness of -0.606 ± 0.063. In the case of T36F, the abundance fitness is reported as -0.342 ± 0.11. Work on F12Y yielded an abundance fitness of -0.023 ± 0.17. Work on E51M yielded an abundance fitness of -1 ± 0.21. S76L gave an abundance fitness of -0.099 ± 0.033. D2V gave an abundance fitness of -0.176 ± 0.03. For D75G, the abundance fitness was -0.032 ± 0.027. F57L showed an abundance fitness of -0.077 ± 0.03. F12S gave an abundance fitness of -0.614 ± 0.12. In the case of E72T, the abundance fitness is reported as -0.073 ± 0.042. T5P gave an abundance fitness of -0.138 ± 0.042. For P4Y, the abundance fitness was -0.102 ± 0.12. For M60R, the abundance fitness was -0.706 ± 0.047. Variant E72K has an abundance fitness of -0.12 ± 0.087. With S6V the abundance fitness was 0.062 ± 0.027. In the case of W70D, the abundance fitness is reported as -0.431 ± 0.15. Work on K64P yielded an abundance fitness of -0.931 ± 0.19. In the case of L63V, the abundance fitness is reported as -0.263 ± 0.029. S77E gave an abundance fitness of -0.016 ± 0.051. With E10A the abundance fitness was 0.006 ± 0.033. With N40C the abundance fitness was 0.028 ± 0.06. K69L gave an abundance fitness of -0.144 ± 0.092. D7V gave an abundance fitness of 0.021 ± 0.094. In the case of A74L, the abundance fitness is reported as -0.09 ± 0.037. In the case of D2S, the abundance fitness is reported as 0.013 ± 0.04. For L71V, the abundance fitness was -0.089 ± 0.12. In the case of L9A, the abundance fitness is reported as -0.491 ± 0.041. Variant P4A has an abundance fitness of -0.03 ± 0.036. Work on C48W yielded an abundance fitness of -0.108 ± 0.036. With D75E the abundance fitness was 0.071 ± 0.034. For F12L, the abundance fitness was -0.776 ± 0.17. Variant V41W has an abundance fitness of 0.004 ± 0.045. Variant L9E has an abundance fitness of -0.797 ± 0.093. R19D gave an abundance fitness of -0.334 ± 0.11. T45I gave an abundance fitness of -0.213 ± 0.057. Q54W gave an abundance fitness of -0.436 ± 0.057. Y38M gave an abundance fitness of -0.331 ± 0.052. Work on P4G yielded an abundance fitness of -0.01 ± 0.035. With G31V the abundance fitness was -0.113 ± 0.034. With A13N the abundance fitness was -1.07 ± 0.28. With K58V the abundance fitness was -0.113 ± 0.039. F12T showed an abundance fitness of -0.359 ± 0.15. In the case of V41K, the abundance fitness is reported as 0.065 ± 0.057. N59H gave an abundance fitness of 0.017 ± 0.065. In the case of G39T, the abundance fitness is reported as -0.325 ± 0.047. T26S gave an abundance fitness of -0.014 ± 0.038. L63W gave an abundance fitness of -0.489 ± 0.037. Q54Y showed an abundance fitness of -0.726 ± 0.27. In the case of A74K, the abundance fitness is reported as -0.037 ± 0.051. L34Y gave an abundance fitness of -0.895 ± 0.17. In the case of N40I, the abundance fitness is reported as -0.045 ± 0.096. In the case of Y38L, the abundance fitness is reported as -0.41 ± 0.043. Work on E51V yielded an abundance fitness of -0.965 ± 0.09. E51Y showed an abundance fitness of -0.999 ± 0.36. For T26L, the abundance fitness was -0.758 ± 0.085. In the case of L9D, the abundance fitness is reported as -0.497 ± 0.078. For F16S, the abundance fitness was -0.802 ± 0.059. Work on G39K yielded an abundance fitness of -0.219 ± 0.054. Work on N68T yielded an abundance fitness of 0.046 ± 0.085. Work on V41H yielded an abundance fitness of 0.039 ± 0.16. In the case of P4R, the abundance fitness is reported as -0.027 ± 0.033. With C61W the abundance fitness was -0.158 ± 0.03. Variant G35Y has an abundance fitness of -0.155 ± 0.076. Variant S43N has an abundance fitness of 0.01 ± 0.054. With S43F the abundance fitness was -0.57 ± 0.18. For L63K, the abundance fitness was -0.749 ± 0.14. Work on A28Q yielded an abundance fitness of -0.094 ± 0.044. Work on G31E yielded an abundance fitness of -0.224 ± 0.04. With S76F the abundance fitness was -0.161 ± 0.056. G39R gave an abundance fitness of -0.25 ± 0.03. In the case of T3I, the abundance fitness is reported as 0.094 ± 0.06. Work on L37W yielded an abundance fitness of -0.201 ± 0.033. For F57S, the abundance fitness was -0.053 ± 0.033. In the case of K14R, the abundance fitness is reported as -0.077 ± 0.064. G35T showed an abundance fitness of 0.052 ± 0.038. In the case of G24A, the abundance fitness is reported as -0.598 ± 0.04. P65Y showed an abundance fitness of 0.137 ± 0.23. Variant K62H has an abundance fitness of -0.156 ± 0.06. With K69T the abundance fitness was -0.02 ± 0.08. Work on Q27R yielded an abundance fitness of -0.201 ± 0.029. For K58W, the abundance fitness was -0.235 ± 0.044. In the case of A33E, the abundance fitness is reported as -0.172 ± 0.042. G24M showed an abundance fitness of -0.821 ± 0.072. In the case of E1F, the abundance fitness is reported as 0.231 ± 0.27. S77V showed an abundance fitness of 0.008 ± 0.042. With T46C the abundance fitness was -0.317 ± 0.061. Work on A13G yielded an abundance fitness of -0.605 ± 0.051. Variant L66R has an abundance fitness of -0.242 ± 0.029. With Q18V the abundance fitness was -0.145 ± 0.036. With G31I the abundance fitness was -0.399 ± 0.14. I21N gave an abundance fitness of -0.311 ± 0.075. Q18N gave an abundance fitness of -0.292 ± 0.22. Work on Q15C yielded an abundance fitness of -0.147 ± 0.059. V30S showed an abundance fitness of -1 ± 0.21. Work on L55E yielded an abundance fitness of -0.298 ± 0.037. G35R gave an abundance fitness of 0.016 ± 0.028. Work on L55T yielded an abundance fitness of -0.583 ± 0.069. In the case of V41M, the abundance fitness is reported as 0.012 ± 0.068. In the case of A52D, the abundance fitness is reported as 0.003 ± 0.051. In the case of Q15T, the abundance fitness is reported as -0.038 ± 0.045. Work on T46A yielded an abundance fitness of -0.186 ± 0.03. F16T gave an abundance fitness of -0.677 ± 0.057. Variant K64A has an abundance fitness of -0.06 ± 0.035. T26Q showed an abundance fitness of -0.586 ± 0.092. Work on N40L yielded an abundance fitness of -0.173 ± 0.037. With F12A the abundance fitness was -0.283 ± 0.13. In the case of V41D, the abundance fitness is reported as 0.047 ± 0.069. C61Y gave an abundance fitness of -0.252 ± 0.077. L55P showed an abundance fitness of -0.586 ± 0.099. Q44D showed an abundance fitness of -0.018 ± 0.042. With S77G the abundance fitness was 0.061 ± 0.036. In the case of T5R, the abundance fitness is reported as -0.082 ± 0.027. For M60H, the abundance fitness was -0.367 ± 0.17. W70P showed an abundance fitness of -0.853 ± 0.11. In the case of F42Q, the abundance fitness is reported as 0.072 ± 0.042. In the case of W70E, the abundance fitness is reported as -0.742 ± 0.077. Variant A13W has an abundance fitness of -0.913 ± 0.14. For A33M, the abundance fitness was -0.077 ± 0.041. Q15W showed an abundance fitness of -0.033 ± 0.034. S76H showed an abundance fitness of 0.023 ± 0.064. Work on C61G yielded an abundance fitness of -0.278 ± 0.027. For A33F, the abundance fitness was -0.329 ± 0.083. With E72F the abundance fitness was -0.191 ± 0.066. For R19P, the abundance fitness was -0.961 ± 0.17.
